Results: US20230078601A1 (CLEVELAND CLINIC FOUNDATION, published 2023)

What was measured:
p21-36 = molecular target: T1, p21-36; test: SPOT peptide array on cellulose membrane, 4D12G1 at 1.0 µg/ml, chemiluminescence
T1 construct: SPOT array peptide on cellulose membrane; also called AMHR2-ED 21-36 16-mer peptide
T1 peptide: TLGELLDTGTELPRAI
Procedure: (§1) The AMHR2-ED binding sequence of the 4D12G1 mAb and the critical AMHR2-ED residues for such binding were confirmed by SPOT peptide arrays. Peptides spanning the AMHR2-ED 9-40 immunoreactive region and ranging from 4-16-mers in length were synthesized >90% pure on cellulose membranes (JPT Peptide Technologies, Berlin, Germany), treated overnight with blocking buffer (Thermo Fisher), followed by treatment with the 4D12G1 mAb at 1.0 μg/ml for 3 hours at room temperature, followed by three washes with PBS containing 0.01% Tween-20 (Bio-Rad). The membranes were then treated with a 1:10,000 dilution of an HRP-conjugated rabbit anti-mouse IgG (MilliporeSigma) followed by three washes with PBS containing 0.01% Tween-20 (Bio-Rad). Bound antibody was detected using the HyGLO chemiluminescence system (Thomas Scientific).
(§2) An overlapping series of 16-mer peptides spanning the entire 132 amino acid sequence of human AMHR2-ED (FIG. 3A) with moving single amino acid shifts were plated for direct ELISA testing using the 4D12G1 mAb as primary antibody. […] To determine amino acids recognized by the 4D12G1 mAb, an overlapping series of peptides spanning the immunoreactive sequence comprising AMHR2-ED 13-30 were synthesized with alanine substitutions at each N-terminal residue or with glycine substitutions for any native N-terminal alanine. These peptides were used in competitive ELISAs to determine which residues inhibit binding of the 4D12G1 mAb with solid phase rhAMHR2-ED. […] To determine the minimal AMHR2-ED sequence involved in the binding of the 4D12G1 mAb, SPOT peptide arrays were generated spanning the immunoreactive region of AMHR2-ED. Peptides ranging from 4-16-mers in length were immobilized on cellulose membranes and treated with the 4D12G1 mAb. Bound antibody was detected by chemiluminescence.

p20-35 = molecular target: T2, p20-35; test: as above
T2 construct: SPOT array peptide on cellulose membrane; also called AMHR2-ED 20-35 16-mer peptide
T2 peptide: KTLGELLDTGTELPRA
Procedure: as §1, §2

p22-37 = molecular target: T3, p22-37; test: as above
T3 construct: SPOT array peptide on cellulose membrane; also called AMHR2-ED 22-37 16-mer peptide
T3 peptide: LGELLDTGTELPRAIR
Procedure: as §1, §2

p20-26 = molecular target: T4, p20-26; test: as above
T4 construct: SPOT array peptide on cellulose membrane; residues 20-26 of AMHR2-ED; also called AMHR2-ED 20-26 7-mer peptide; KTLGELL
T4 peptide: KTLGELL
Procedure: as §1, §2

rβ-Casein = molecular target: T5, rβ-Casein (mouse, UniProt P10598); test: competitive ELISA: 4D12G1 pre-incubated with rising rβ-casein, then added to plates coated with rhAMHR2-ED
T5 construct: recombinant; also called recombinant mouse β-casein; recombinant β-casein
T5 sequence (P10598 16-231 limits assumed): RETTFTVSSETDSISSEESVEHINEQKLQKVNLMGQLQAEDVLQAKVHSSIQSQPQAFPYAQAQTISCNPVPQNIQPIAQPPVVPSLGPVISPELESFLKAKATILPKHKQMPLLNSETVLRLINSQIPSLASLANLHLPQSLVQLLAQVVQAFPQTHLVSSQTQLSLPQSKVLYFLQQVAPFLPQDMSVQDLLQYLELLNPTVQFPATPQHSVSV
Procedure: The specificity of the mAbs was determined by competitive ELISA. Briefly, mAbs were incubated with increasing concentrations of rhAMHR2-ED in liquid phase PBS containing 0.02% Tween-20 (Bio-Rad) for 24 hours at 4° C. The antigen-antibody mixtures were added to the 96-well Maxisorp microtiter plates (Corning Life Sciences, Tewksbury, Mass.) pre-coated with 4 μg/ml rhAMHR2-ED followed by blocking with 1% BSA (Sigma-Aldrich). Recombinant mouse β-casein was used as the specificity control. Wells were then incubated with a secondary anti-mouse IgG conjugated with horseradish peroxidase (HRP; MilliporeSigma, Burlington, Mass.) followed by addition of 2,2′-Azino-bis(3-ethylbenzothiazoline-6-sulfonic acid) diammonium salt (ABTS) substrate (Sigma-Aldrich). Optical density was determined by absorbance at 405 nm.

binding result (p21-36): binds
binding result (p20-35): binds
binding result (p22-37): binds
binding result (p20-26): binds
binding result (rβ-Casein): no binding (tested: 100 µg/ml)
B1: 4D12G1 mAb (antibody, IgG1, V domains shown)
VH: DVKLVESGGGLVKLGGSLKLSCAASGFTFSRYFMSWVRQTPEKRLELVAAINSDGGRTYYPDTVKGRFTISRDNAKNTLYLQMSSLKSEDTALYYCTRHIYSYYEDYFDYWGQGTTLTVSS
VL: DVVMTQTPLSLPVSLGDQASISCRSSQSLVHSNGNTYLHWYLQKPGQSPKLLIYKVSKRFSGVPDRFSGSGSGTDFTLKISRVEAEDLGVYFCSQSTHVYTFGGGTKLEIK
notes: also called 4D12G1 IgG1 mAb
